Measurements from publication doi:10.1101/2022.04.26.489529 (bioRxiv, 2022).

Experiments:
[1] = target: S protein of the SARS-CoV-2 strain D614G (SARS-CoV-2, D614G, UniProt A0A6H1PJZ3, D614G); assay: ELISA
[2] = target: stabilized Omicron S ECD HexaPro (SARS-CoV-2 Omicron BA.1, N440K | S477N | T478K | E484A | Q493R); assay: cryo-EM structure

B1: 58G6 (antibody, V domains shown)
VH: QMQLVQSGPEVKKPGTSVKVSCKASGFTFSSSAVQWVRQARGQHLEWIGWIVVGSGNTNYAQKFQERVTLTRDMSTRTAYMELSSLRSEDTAVYYCAAPNCNSTTCHDGFDIWGQGTVVTVSS
VL: EIVLTQSPGTLSLSPGERATLSCRASQSVRSSYLGWYQQKPGQAPRLLIYGASSRATGIPDRFSGSGSGTDFTLTISRLESEDFAVYYCQQYDNSPWTFGQGTKVEIK
[1]
  binding result: binds

B2: 58G6 Fab (Fab, V domains shown)
VH: QMQLVQSGPEVKKPGTSVKVSCKASGFTFSSSAVQWVRQARGQHLEWIGWIVVGSGNTNYAQKFQERVTLTRDMSTRTAYMELSSLRSEDTAVYYCAAPNCNSTTCHDGFDIWGQGTVVTVSS
VL: EIVLTQSPGTLSLSPGERATLSCRASQSVRSSYLGWYQQKPGQAPRLLIYGASSRATGIPDRFSGSGSGTDFTLTISRLESEDFAVYYCQQYDNSPWTFGQGTKVEIK
[2]
  stoichiometry N: 1 Fab per trimer
